Test results as given in US20030120051A1 (SUGEN, published 2003).

What was measured:
[1] = molecular target: T1, human contactin of IMR-32 neuroblastoma cells (140 kDa protein) (human, UniProt Q12860 21-993, GPI-anchored); test: cross-linking (DTSSP) on IMR-32 cells, protein A precipitation, SDS-PAGE
T1 construct: whole, on cells; also called p140
T1 sequence (looked up): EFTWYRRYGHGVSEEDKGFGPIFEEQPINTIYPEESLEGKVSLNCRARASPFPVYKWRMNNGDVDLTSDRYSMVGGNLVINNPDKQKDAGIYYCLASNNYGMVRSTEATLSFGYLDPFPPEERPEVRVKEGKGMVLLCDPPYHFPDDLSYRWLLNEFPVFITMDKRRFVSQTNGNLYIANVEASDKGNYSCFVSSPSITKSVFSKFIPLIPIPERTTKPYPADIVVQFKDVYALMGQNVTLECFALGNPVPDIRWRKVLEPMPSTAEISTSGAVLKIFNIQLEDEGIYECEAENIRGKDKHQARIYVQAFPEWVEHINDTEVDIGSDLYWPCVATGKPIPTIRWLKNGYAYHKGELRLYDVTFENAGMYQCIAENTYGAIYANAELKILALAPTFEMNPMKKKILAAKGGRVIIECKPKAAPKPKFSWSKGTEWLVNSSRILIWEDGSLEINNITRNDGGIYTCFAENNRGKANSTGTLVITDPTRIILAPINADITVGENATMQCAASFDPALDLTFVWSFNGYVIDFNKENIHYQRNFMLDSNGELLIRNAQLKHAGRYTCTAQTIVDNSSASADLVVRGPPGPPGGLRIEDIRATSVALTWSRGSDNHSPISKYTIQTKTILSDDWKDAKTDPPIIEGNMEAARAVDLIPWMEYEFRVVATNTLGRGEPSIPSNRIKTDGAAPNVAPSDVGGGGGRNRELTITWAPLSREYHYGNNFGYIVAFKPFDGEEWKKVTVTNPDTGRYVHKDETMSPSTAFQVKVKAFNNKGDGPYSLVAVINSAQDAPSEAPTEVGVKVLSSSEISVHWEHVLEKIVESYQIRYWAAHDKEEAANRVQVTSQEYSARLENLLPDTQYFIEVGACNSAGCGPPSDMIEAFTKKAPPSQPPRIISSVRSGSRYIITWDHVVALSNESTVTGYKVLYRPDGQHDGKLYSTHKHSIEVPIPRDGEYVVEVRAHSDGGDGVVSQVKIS
Experimental: (§1) Cells were incubated for four hours with medium containing, the different Fc-fusion proteins. Following three washes with cold PBS/Ca (1 mM CaCl₂ in PBS), the cells were incubated for additional 30 minutes with PBS/Ca containing 1 mM DTSSP (3,3′-Dithiobis[sulfosuccinimidyl--propionate], Pierce, Rockford, Ill.). Free cross-linker was removed by additional PBS wash followed by quenching with 100 mM glycine in TBS for 10 minutes at 4° C. Cell lysates were made in SBN lysis buffer (Peles et al., 1991, EMBO J., 10:2077-2086), and Sepharose-protein A was added to the cleared lysates. Following two hours incubation at 4° C., the beads were washed three times with HNTG buffer (Peles et al., 1991, EMBO J., 10:2077-2086), and the bound proteins were eluted by adding SDS PAGE sample buffer containing 5% β-mercaptoethanol and further incubation for 10 minutes at 95° C.
(§2) To characterize ligands for RPTPβ, a reversible cross-linker ([…]) was used, and proteins were sought that specifically bound to βC-Fc. Two of the cell lines that bound βC-Fc (IMR32 and GH3), as well as COS7 cells as a control, were allowed to react with the fusion proteins containing the FNIII or the CAH domains followed by cross-linking and precipitation of the complexes. […] No reactivity was detected in control cells or in cells incubated with βF-Fc. […]

[2] = molecular target: T2, rat contactin (clone F8; p140 of GH3 cells) (rat, UniProt Q63198 21-1001, GPI-anchored); test: cross-linking (DTSSP) on GH3 cells, protein A precipitation, SDS-PAGE
T2 construct: whole, on cells; On transfected COS7 cells, on GH3 cells, in solubilized GH3 membranes or in rat brain membranes, as the entry says; also called rat homologue of contactin; F3/F11
T2 sequence (looked up): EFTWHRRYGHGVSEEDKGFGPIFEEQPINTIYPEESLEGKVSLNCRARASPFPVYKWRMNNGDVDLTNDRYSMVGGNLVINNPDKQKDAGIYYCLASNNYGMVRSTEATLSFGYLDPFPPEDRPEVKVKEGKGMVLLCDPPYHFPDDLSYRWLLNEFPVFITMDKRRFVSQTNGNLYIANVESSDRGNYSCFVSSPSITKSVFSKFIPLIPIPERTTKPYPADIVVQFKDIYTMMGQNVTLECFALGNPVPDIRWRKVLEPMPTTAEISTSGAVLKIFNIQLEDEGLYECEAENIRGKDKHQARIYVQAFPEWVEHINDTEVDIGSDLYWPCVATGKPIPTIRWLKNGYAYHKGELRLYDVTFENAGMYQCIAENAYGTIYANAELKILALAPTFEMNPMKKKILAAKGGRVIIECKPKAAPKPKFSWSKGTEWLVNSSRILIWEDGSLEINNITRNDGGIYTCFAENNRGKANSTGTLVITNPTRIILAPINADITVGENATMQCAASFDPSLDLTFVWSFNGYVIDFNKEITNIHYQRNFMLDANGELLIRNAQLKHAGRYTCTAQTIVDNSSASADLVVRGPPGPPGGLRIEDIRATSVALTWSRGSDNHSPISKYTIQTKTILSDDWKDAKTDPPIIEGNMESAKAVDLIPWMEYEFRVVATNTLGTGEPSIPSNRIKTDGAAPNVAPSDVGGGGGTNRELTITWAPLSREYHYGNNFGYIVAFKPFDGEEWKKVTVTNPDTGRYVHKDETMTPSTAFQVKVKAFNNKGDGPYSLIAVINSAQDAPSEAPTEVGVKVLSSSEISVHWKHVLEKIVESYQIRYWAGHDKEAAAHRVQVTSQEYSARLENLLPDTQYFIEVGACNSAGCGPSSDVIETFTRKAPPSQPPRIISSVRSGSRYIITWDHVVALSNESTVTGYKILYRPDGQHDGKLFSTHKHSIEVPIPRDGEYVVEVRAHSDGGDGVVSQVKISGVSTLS
Experimental: as §1, §2

binding result [1]: no binding
binding result [2]: no binding
B1: βF-Fc (FNIII domain of RPTPβ fused to human IgG1-Fc) (Fc fusion)
chain: not shown
notes: domain: FNIII; also called the FNIII domain alone; fibronectin domain alone; not shown: human IgG1 Fc (vector pCNγ1)
